Series [1] concerns the target Geobacillus stearothermophilus IstA (IS5376 transposase, IS21 family) (Geobacillus stearothermophilus). The series can be described thus: cryo-EM structure; IstA mixed 1:1.5 with the pre-cleaved right TIR DNA (5-nt 5' overhang), complex isolated by gel filtration; 50 mM HEPES pH 7.5, 150 mM NaCl, 5 mM MgCl2, 1 mM DTT, 0.005% Tween-20; 3.4 Å, C2 symmetry. On the technique in general: SEC sorts molecules by how far they enter the pores of the column.

Series [2] deals with T1, IstA-MBP (Geobacillus stearothermophilus, UniProt Q45618 1-400).
T1 sequence: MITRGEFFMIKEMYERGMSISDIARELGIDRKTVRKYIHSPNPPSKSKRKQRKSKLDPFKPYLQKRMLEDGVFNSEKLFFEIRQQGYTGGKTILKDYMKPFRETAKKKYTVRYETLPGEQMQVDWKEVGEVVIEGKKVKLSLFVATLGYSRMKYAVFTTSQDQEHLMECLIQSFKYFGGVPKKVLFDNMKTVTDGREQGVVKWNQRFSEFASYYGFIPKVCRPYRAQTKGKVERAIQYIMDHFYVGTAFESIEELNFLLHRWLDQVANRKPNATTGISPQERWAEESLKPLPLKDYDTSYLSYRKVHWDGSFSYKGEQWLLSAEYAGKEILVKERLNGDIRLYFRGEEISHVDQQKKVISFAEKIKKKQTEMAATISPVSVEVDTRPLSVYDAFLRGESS
The series can be described thus: fluorescence anisotropy; apparent Kd; Hill coefficient 1.2; 5 mM Mg2+; Fluorescence anisotropy: 50 mM HEPES pH 7.5, 150 mM NaCl, 5 mM MgCl2, 10% glycerol, 1 mM beta-mercaptoethanol, 0.1 mg/ml BSA, 5 nM DNA, 37 °C, 5 min. As to conditions: protein: recombinant; tags: C-terminal TEV-cleavable MBP-His6; label: 5'-FAM on strand 1; blunt. (In general: Polarisation of emitted light reports the rotation of a fluorescent probe.)

Series [3] deals with T1, IstA-MBP. As to the kind of experiment: fluorescence anisotropy; apparent Kd; Hill coefficient 1.5; 5 mM Mg2+; Fluorescence anisotropy: 50 mM HEPES pH 7.5, 150 mM NaCl, 5 mM MgCl2, 10% glycerol, 1 mM beta-mercaptoethanol, 0.1 mg/ml BSA, 5 nM DNA, 37 °C, 5 min. Conditions: protein: recombinant; tags: C-terminal TEV-cleavable MBP-His6; label: 5'-FAM on strand 1; blunt.
In series [4] the target is T1, IstA-MBP. As to the kind of experiment: fluorescence anisotropy; apparent Kd; Hill coefficient 3.6; 5 mM Mg2+; Fluorescence anisotropy: 50 mM HEPES pH 7.5, 150 mM NaCl, 5 mM MgCl2, 10% glycerol, 1 mM beta-mercaptoethanol, 0.1 mg/ml BSA, 5 nM DNA, 37 °C, 5 min. Conditions: protein: recombinant; tags: C-terminal TEV-cleavable MBP-His6; label: 5'-FAM on strand 1; blunt.

For series [5], the target named is T2, IstA (Geobacillus stearothermophilus, UniProt Q45618 1-400).
T2 sequence: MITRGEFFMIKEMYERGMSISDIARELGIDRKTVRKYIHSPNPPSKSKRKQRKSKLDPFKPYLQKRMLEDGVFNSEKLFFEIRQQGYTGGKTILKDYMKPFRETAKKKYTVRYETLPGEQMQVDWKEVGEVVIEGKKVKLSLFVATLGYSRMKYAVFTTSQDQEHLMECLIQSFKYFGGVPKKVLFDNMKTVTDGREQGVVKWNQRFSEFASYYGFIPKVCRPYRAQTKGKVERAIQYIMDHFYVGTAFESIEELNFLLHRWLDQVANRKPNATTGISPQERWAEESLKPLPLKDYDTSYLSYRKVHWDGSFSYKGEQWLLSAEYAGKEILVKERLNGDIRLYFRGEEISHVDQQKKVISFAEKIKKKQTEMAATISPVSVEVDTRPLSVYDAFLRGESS
The series can be described thus: cryo-EM structure (3.4 A); 5 mM Mg2+; IstA tetramer with two DNA ends; Fluorescence anisotropy: 50 mM HEPES pH 7.5, 150 mM NaCl, 5 mM MgCl2, 10% glycerol, 1 mM beta-mercaptoethanol, 0.1 mg/ml BSA, 5 nM DNA, 37 °C, 5 min. As to conditions: protein: recombinant; tags: MBP-His6 tag removed by TEV; 5' overhang 5 nt on strand 2; two duplex copies per tetramer.

Series [6] addresses T1, IstA-MBP. As to the kind of experiment: fluorescence anisotropy; apparent Kd; Hill coefficient 2.2; 5 mM Mg2+; Fluorescence anisotropy: 50 mM HEPES pH 7.5, 150 mM NaCl, 5 mM MgCl2, 10% glycerol, 1 mM beta-mercaptoethanol, 0.1 mg/ml BSA, 5 nM DNA, 37 °C, 5 min. As to conditions: protein: recombinant; tags: C-terminal TEV-cleavable MBP-His6; label: 5'-FAM on strand 1; blunt.

The values that follow come from article PMC10122671, “IS21 family transposase cleaved donor complex traps two right-handed superhelical crossings”.

In general, stoichiometry N refers to a count of units in the complex or per binding partner.

Turning to “Geobacillus stearothermophilus IstA (IS5376 transposase, IS21 family) (enzyme)”, the stoichiometry N in series [1] was 4.

B1: R1 (27 bp right TIR) (dsDNA)
DNA 1: TTGGGGAAAAAATAATCGGCCTTGACA
DNA 2: TGTCAAGGCCGATTATTTTTTCCCCAA
As for B1, the Kd in series [2] stood at 176 nM.

B2: Rd60 (dsDNA)
DNA 1: TGCTTGCGATGATCCGACGTGTTAGCCACGCTGACTAGTTATGCCATGCCTCCCTTCAGG
DNA 2: CCTGAAGGGAGGCATGGCATAACTAGTCAGCGTGGCTAACACGTCGGATCATCGCAAGCA
Turning to B2, the Kd in series [3] was found to be 191 nM.

B3: R1-R2 (pre-cleaved full right TIR) (dsDNA)
DNA 1: CCTTCTGGGGAATTTTAAACCGGCGATTTTGGGGAAAAAATAATCGGCCTTGACA
DNA 2: TGTCAAGGCCGATTATTTTTTCCCCAAAATCGCCGGTTTAAAATTCCCCAGAAGG
Consider B3, for which the Kd in series [4] amounted to 125 nM.

B4: Pre-cleaved right TIR with 5 nt 5' overhang (dsDNA)
DNA 1: CCTTCTGGGGAATTTTAAACCGGCGATTTTGGGGAAAAAATAATCGGCCTTGACA
DNA 2: ATTCATGTCAAGGCCGATTATTTTTTCCCCAAAATCGCCGGTTTAAAATTCCCCAGAAGG
On to B4, for which the binding result in series [5] is “binds”.

B5: Rd27 (dsDNA)
DNA 1: TGCTAACACGTCGGATCATCGCAAGCA
DNA 2: TGCTTGCGATGATCCGACGTGTTAGCA
In the case of B5, the Kd in series [6] was determined as 121 nM.
